The numbers were not newly measured in PMC5620257, which cites them from elsewhere.

Where two headings read alike, the source gives them in different places.

Data set [1] concerns the target PD1 (Homo sapiens) (UniProt Q15116).
Data set [2] has the same target. The source holds these as a separate data set.

UniProt Q15116, sequence (Q15116 25-170): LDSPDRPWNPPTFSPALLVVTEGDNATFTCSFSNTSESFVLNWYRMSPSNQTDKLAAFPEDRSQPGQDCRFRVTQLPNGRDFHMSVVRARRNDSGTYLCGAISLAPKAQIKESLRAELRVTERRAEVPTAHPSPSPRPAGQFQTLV

Broadly, the Kd is the free concentration of one partner at which half of the binding sites on the other are occupied at equilibrium, for simple one-to-one binding. As to PD-L1 (from UniProt Q9NZQ7), the Kd is 0.77 µM in the data set with PD1 (Homo sapiens) [1] and 26.6 µM with PD1 (Homo sapiens) [2].
